Article PMC4038590 (PLoS ONE, 2014)

T1: human Med25 ACtivator Interaction Domain (hMed25-ACID), 6 x his-tagged human Med25_(394-543) (human, UniProt Q71SY5 394-543)
T1 construct: source: 15N-labelled in M9 medium for NMR
T1 sequence (looked up): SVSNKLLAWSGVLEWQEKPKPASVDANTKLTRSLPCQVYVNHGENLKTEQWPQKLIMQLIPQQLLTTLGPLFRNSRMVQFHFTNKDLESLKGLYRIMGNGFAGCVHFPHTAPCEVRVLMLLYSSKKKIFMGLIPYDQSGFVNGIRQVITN

B1: Arabidopsis thaliana Med25 ACtivator Interaction Domain (aMed25-ACID), Med25_(551-680) (domain or fragment, UniProt Q7XYY2 551-680, looked up)
chain: TSQSKYVKVWEGNLSGQRQGQPVLITRLEGYRSASASDSLAANWPPTMQIVRLISQDHMNNKQYVGKADFLVFRAMSQHGFLGQLQDKKLCAVIQLPSQTLLLSVSDKACRLIGMLFPGDMVVFKPQIPN
notes: source: 15N-labelled in M9 medium for NMR
B2: GST-VP16-TAD (Herpes simplex virus VP16 transcription activation domain, both subdomains, residues 427-485) (domain or fragment)
chain: DGEDVAMAHADALDDFDLDMLGDGDSPGPGFTPHDSAPYGALDMADFEFEQMFTDALGI
notes: source: E. coli BL21 pLysS, purified (glutathione-sepharose 4B)
B3: GST-VP16-TADn (Herpes simplex virus VP16 N-terminal transcription activation subdomain, residues 412-452) (domain or fragment)
chain: TAPPTDVSLGDELHLDGEDVAMAHADALDDFDLDMLGDGDS
notes: as for B2
B4: 6 x his-tagged Dreb2a_(168-335) (Dehydration responsive element binding protein 2A, Med25-binding domain 168-253 and activation domain 254-335) (domain or fragment, Arabidopsis thaliana, UniProt O82132 168-335, looked up)
chain: DCESKPFSGGVEPMYCLENGAEEMKRGVKADKHWLSEFEHNYWSDILKEKEKQKEQGIVETCQQQQQDSLSVADYGWPNDVDQSHLDSSDMFDVDELLRDLNGDDVFAGLNQDRYPGNSVANGSYRPESQQSGFDPLQSLNYGIPPFQLEGKDGNGFFDDLSYLDLEN

Columns and labels:
Conditions in all cases: both partners purified
[1] = target: B4; experiment: ITC
[2] = target: B1; experiment: SPR
[3] = target: T1, human Med25 ACtivator Interaction …; experiment: SPR
[4] = target: B1; experiment: ITC

Binder	Ka [1]	Kd [1]	Kd [2]	Kd [3]	dH [4]
B1	328000 M⁻¹	3000 nM			
B2			1800 nM	2800 nM	
B3			2400 nM	5400 nM	
B4					-21.9 kcal/mol
